Test results as given in publication PMC7968997.
Substitutions are numbered along the chain they refer to.

Assays:
Assay in all cases: fluorescence polarization
RRM1 analog D53A = molecular target: T1, RRM1 analog D53A (Homo sapiens, UniProt Q8IUH3 23-202, D53A;F124A;Y165A)
T1 sequence: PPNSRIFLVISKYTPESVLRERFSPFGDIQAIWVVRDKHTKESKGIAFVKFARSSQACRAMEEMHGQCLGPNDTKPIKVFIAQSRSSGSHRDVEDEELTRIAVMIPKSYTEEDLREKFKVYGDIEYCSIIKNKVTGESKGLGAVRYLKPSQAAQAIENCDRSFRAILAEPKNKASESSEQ

RRM1 analog F70A = molecular target: T2, RRM1 analog F70A (Homo sapiens, UniProt Q8IUH3 23-202, F70A;F124A;Y165A)
T2 sequence: T1 sequence with A31D, F48A

RRM1 analog D114A = molecular target: T3, RRM1 analog D114A (Homo sapiens, UniProt Q8IUH3 23-202, D114A;F124A;Y165A)
T3 sequence: T1 sequence with A31D, D92A

RRM1 analog K100A = molecular target: T4, RRM1 analog K100A (Homo sapiens, UniProt Q8IUH3 23-202, K100A;F124A;Y165A)
T4 sequence: T1 sequence with A31D, K78A

RRM1 analog W55A = molecular target: T5, RRM1 analog W55A (Homo sapiens, UniProt Q8IUH3 23-202, W55A;F124A;Y165A)
T5 sequence: T1 sequence with A31D, W33A

RRM2 analog Y165A = molecular target: T6, RRM2 analog Y165A (Homo sapiens, UniProt Q8IUH3 23-202, F29A;F70A;Y165A)
T6 sequence: T1 sequence with F7A, A31D, F48A, A102F

RRM1 analog F29A = molecular target: T7, RRM1 analog F29A (Homo sapiens, UniProt Q8IUH3 23-202, F29A;F124A;Y165A)
T7 sequence: T1 sequence with F7A, A31D

[1] = molecular target: T8, RBM45 RRM1-2 quadruple mutant (Homo sapiens, UniProt Q8IUH3 23-202, F29A;F70A;F124A;Y165A)
T8 sequence: T1 sequence with F7A, A31D, F48A

GGACGG (ssRNA) [GGACGG RNA]
Kd (RRM1 analog D53A): 1.99 µM
Kd (RRM1 analog F70A): 16.8 µM
Kd (RRM1 analog D114A): 1.13 µM
Kd (RRM1 analog K100A): 4.59 µM
Kd (RRM1 analog W55A): 3.54 µM
Kd (RRM2 analog Y165A): 20.4 µM
Kd (RRM1 analog F29A): 7.38 µM
binding signal [1]: ~150 fold decrease vs WT
